Test results reported in the RNAGym collection of RNA variant scans (doi:10.1073/pnas.2313332121).

B1: TPR t1 (parent)
chain: GACCAAUCUGCCCUCAGAGCUCGAGAACAUCUUCGGAUGCAGAGGAGGCAGGCUUCGGUGGCGCGAUAGCGCCAACGUCCUCAACCUCCAAUGCAUCCCACCACAUGAUGAUGCCUGAAGAGCCUUGGUUUUUUG

Variants of: B1
Assay: polymerase ribozyme fitness, log enrichment relative to wild type (log ratio); higher = more active; in vitro selection for triplet polymerase activity
In short: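 The heterodimeric triplet polymerase ribozyme's subunits were each mutagenized into PCR-built libraries and transcribed. Every library was selected once, in triplicate, by annealing with a biotinylated primer, the partner subunit and triplets, incubating frozen at −7 °C, gel-excising extended constructs, capturing on streptavidin beads and running RT-PCR. Input and output libraries were Illumina-sequenced, with genotypes kept only at ≥10 input reads and ≥1 read per output. Fitness, from inverse-variance-weighted replicate averages, is the base-2 logarithm of genotype enrichment over wild-type enrichment.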

Variant	polymerase ribozyme fitness (log ratio)
G60A C76U	-1
G60A A111C C123A	-1.91
G60C G120A	0.168
G60A G113C	-2.12
G60A C86A C98G U109A G117U	-6.71
G60A G120C G128U	0.061
G60C U125A	-0.729
G60A G63U U87A U92A C102A C115G G128U	-5.66
G60C G135U	-1.23
G60C G135A	-1.35
G60A C79U C80A A121G	-3.77
G60U A103G U112G	-6.67
G60A G120U A121C	0.445
G60A U87A	-0.0639
G60U A111C G122C	-0.82
G60A C97G	-4.02
G60A C97A	-4.41
G60A G61C U92C G113A	-3.6
G60C C73U	-1.41
G60A C82U U131A	-0.161
G60C U133A	-0.621

Variant	polymerase ribozyme fitness (log ratio)
G60C A84U	-0.735
G60A C82G C86A U87G	-1.52
G60A G63C G110A G135C	-6.16
G60C C88U	-0.669
G60A C94A G110U	-3.31
G60C U81C	-0.172
G60A C97G G120C	-4.18
G60A G120A	0.658
G60A A74G	-2.01
G60A C97U G120C	0.712
G60U A91G C123U	-0.372
G60A C115A G117A	-4.99
G60A U129A	-0.603
G60A C80U C89U	-2.13
G60C C124U	1
G60A G71A A90U C94A G110C	-6.47
G60A C79U C98G C99A C123G	-2.67
G60A U78A A84U G93A C102A	-5
G60C C86U	0.269
G60C C86A	-2.44
G60A C89A C115U	-2.92

Variant	polymerase ribozyme fitness (log ratio)
G60A A121G	1.66
G60A G71U	-4.5
G60A A105G G120U U133G G135U	-3.99
G60A C72G U131A	-1.09
G60C U132A	-0.171
G60A A111U	-3.16
G60C G71U G120U U130G	-5.39
G60C G110A	-1
G60A C79A G110A	-3.84
G60A C73G G110A U112C	-2.14
G60U A84G G128A	-1.56
G60C C70A U78A C85G C98U G117C	-6.56
G60U A91C G93U C104A G117U	-6
G60C G93C G120A U126C	-0.901
G60A C82G C101U G120A G128U	-2.12
G60A G93C	-1.2
G60C C102A G110A	-4.88
G60A A95U	-0.238
G60A A95G	-0.00276
G60A U87A A119G U125C	-0.987
G60C U129G	-1.43

Variant	polymerase ribozyme fitness (log ratio)
G60A G117A	-1.29
G60A U78G G113C U133G	-3.73
G60C A100U C114A	-3.1
G60A G110A	-1.52
G60A C82A C85A G120A	-0.412
G60A C98A C123U	-5.08
G60C U96A	-1.77
G60A U87G C102G G113A	-6.32
G60U C62U G117U	-5.73
G60A G128C	-2.6
G60A G128U	-1.57
G60C G61U	-1.76
G60A C86A U131C	-1.16
G60U A103C U106G U125A	-5.2
G60C U116C	-1.73
G60C A105U	-3.07
G60A A83C C101G G128C	-4.75
G60U C62U	-0.758
G60A U109A U133G	-5.4
G60A C89U C124A	0.913
G60C C64U	-5.26
